We go through one protein from article doi:10.1101/2021.03.08.434344 (bioRxiv, 2021).

The series deals with the molecule itself. The experiment in a line: cryo-EM structure.

B1: Homo sapiens ferritin (apoferritin) (natural protein, human, UniProt Q8TD27 1-165, looked up)
chain: MTTASTSQVRQNYHQDSEAAINRQINLELYASYVYLSMSYYFDRDDVALKNFAKYFLHQSHEEREHAEKLMKLQNQRGGRIFLQDIKKPDCDDWESGLNAMECALHLEKNVNQSLLEFPSPISPSPSCWHHYTTNRPQPQHHLLRPRRRKRPHSIPTPILIFRSP
For the protein B1, the binding result is “binds”.
